Tests used:
human LRP6 [1] = target: T1, human LRP6 (human, UniProt O75581 20-1613); test: cell-based or functional assay
[2] = target: T2, LRP6-Fc (R&D Systems, catalog No: 1505-LR) (human, UniProt O75581 20-1370); test: ELISA on coated LRP6-Fc, detection with pentaHis-HRP
T2 construct: Purchased reagent; also called LRP6 protein; 360 KD homodimer antigen LRP6-Fc; not shown: Fc part of the purchased fusion
T2 sequence (looked up): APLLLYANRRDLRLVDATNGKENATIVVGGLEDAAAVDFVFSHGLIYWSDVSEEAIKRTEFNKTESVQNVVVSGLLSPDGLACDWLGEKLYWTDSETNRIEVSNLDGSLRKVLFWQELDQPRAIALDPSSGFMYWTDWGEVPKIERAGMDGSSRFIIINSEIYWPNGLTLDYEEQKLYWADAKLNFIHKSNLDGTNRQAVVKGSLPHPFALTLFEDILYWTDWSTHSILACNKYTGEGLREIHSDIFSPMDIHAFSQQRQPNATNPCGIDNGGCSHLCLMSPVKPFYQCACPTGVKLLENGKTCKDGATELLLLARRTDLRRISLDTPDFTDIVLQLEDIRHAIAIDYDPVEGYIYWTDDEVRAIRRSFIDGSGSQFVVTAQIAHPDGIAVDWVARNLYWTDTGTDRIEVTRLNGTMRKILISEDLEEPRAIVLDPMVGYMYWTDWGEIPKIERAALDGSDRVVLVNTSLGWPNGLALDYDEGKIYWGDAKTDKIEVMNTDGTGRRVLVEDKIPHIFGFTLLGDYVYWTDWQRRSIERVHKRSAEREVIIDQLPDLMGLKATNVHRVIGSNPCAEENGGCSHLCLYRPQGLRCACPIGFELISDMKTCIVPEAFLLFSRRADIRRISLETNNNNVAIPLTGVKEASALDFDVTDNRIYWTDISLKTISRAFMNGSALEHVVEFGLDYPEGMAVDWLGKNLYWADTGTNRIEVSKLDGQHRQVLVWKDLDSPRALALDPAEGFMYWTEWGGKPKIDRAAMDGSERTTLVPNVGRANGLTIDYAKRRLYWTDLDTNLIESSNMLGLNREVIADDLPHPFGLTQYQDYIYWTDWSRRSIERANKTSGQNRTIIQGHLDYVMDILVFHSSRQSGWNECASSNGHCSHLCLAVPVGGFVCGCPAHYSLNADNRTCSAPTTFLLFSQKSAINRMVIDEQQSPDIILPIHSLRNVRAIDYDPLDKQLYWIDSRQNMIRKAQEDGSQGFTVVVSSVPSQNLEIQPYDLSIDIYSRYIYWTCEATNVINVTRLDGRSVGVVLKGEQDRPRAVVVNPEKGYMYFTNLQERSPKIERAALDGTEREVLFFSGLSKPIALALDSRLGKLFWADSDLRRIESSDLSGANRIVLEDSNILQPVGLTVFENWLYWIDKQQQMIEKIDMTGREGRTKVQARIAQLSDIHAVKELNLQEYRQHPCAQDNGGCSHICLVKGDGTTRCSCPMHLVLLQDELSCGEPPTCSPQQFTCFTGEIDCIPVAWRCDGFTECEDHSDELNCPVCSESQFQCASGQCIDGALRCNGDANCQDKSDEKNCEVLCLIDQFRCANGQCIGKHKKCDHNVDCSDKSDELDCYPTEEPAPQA
Method: Binding EC₅₀ of scFvs against LRP6 protein was measured by ELISA. Maxisorp plate was coated with LRP6-Fc (R&D Systems, catalog No: 1505-LR) at 3 μg/ml at 4° C. overnight. The plate was blocked with 50 μl of 2% BSA for one hour, and washed five times with the wash solution. The samples were diluted with 1% BSA accordingly. The plate was incubated at RT for 1 h, and washed for 3 times. Detection was done by adding 50 μl pentaHis-HRP (Qiagen Mat. No. 1014992) at 1:2000 dilution in 1% BSA, incubated at RT for 1 h, and washed 3 times. 50 μl of substrate reagent A plus B (R&D systems) was added, then incubated for 5-20 min depending on the color. The reaction was stopped by adding 25 μl of the stop solution, followed by plate reading at 450 nm.
Affinity analysis ELISA EC₅₀ was carried out for both scFv08168 and scFv06475 wild type and variants.

mouse LRP6 = target: T3, mouse LRP6 (mouse, UniProt O88572 20-1613); test: FACS on NIH 3T3 cells, endogenous mouse LRP6
T3 construct: whole, on cells; also called murine LRP6; endogenous LRP6 on NIH 3T3 cells
Method: (§1) Cross-species reactivity to murine and cynomologus LRP6 was determined on cells by FACS analysis. FACS staining was performed essentially as described above. Human U266 cells (no expression of LRP6) were used as a negative control.
(§2) To show cross-reactivity, cells expressing endogenous LRP6 of human (HEK293T/17) and mouse origin (NIH 3T3), or transiently transfected HEK293/T17 cells expressing cynomolgus LRP6, were treated and subjected to flow cytometry as described above.

human LRP6 [3] = target: T1, human LRP6; test: FACS on HEK293T/17 cells, endogenous human LRP6
Method: as §1, §2

LRP6 PD3/4 = target: T4, LRP6 PD3/4 (human, UniProt O75581 631-1246); test: Biacore T-100 SPR, antibody captured by anti-human IgG Fc on a CM4 chip, PD3/4 injected; N = 4
T4 construct: range 631-1246; Recombinant soluble fragment; also called Propeller Domains 3-4 of LRP6; recombinant LRP6 PD3/4
T4 sequence (looked up): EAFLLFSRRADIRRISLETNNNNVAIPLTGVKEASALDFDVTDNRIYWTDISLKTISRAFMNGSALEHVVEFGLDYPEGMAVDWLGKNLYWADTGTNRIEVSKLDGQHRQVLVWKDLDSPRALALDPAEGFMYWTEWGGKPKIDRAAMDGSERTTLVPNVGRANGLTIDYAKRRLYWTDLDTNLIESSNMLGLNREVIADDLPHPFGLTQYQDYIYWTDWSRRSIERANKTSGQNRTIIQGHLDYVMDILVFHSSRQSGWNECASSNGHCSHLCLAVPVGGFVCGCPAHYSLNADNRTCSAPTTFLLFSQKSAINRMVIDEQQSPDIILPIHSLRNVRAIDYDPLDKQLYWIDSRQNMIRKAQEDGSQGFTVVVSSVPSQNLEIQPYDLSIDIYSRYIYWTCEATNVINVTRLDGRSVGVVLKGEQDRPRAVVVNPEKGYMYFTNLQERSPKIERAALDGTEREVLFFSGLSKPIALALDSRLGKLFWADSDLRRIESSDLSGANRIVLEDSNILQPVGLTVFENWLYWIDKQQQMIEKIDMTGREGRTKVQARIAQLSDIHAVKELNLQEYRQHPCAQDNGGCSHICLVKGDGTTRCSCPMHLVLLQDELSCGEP
Method: The carboxymethyl dextran surface was activated with a 7 min injection of a 1:1 ratio of 0.4 M EDC (1-Ethyl-3-[3-dimethylaminopropyl]carbodiimide hydrochloride) and 0.1 M NHS(N-hydroxysuccinimide). […] PD1/2 and PD3/4 were prepared as two fold concentration series starting at 50 nM, and injected at 30 μl/min for 1 min. […] The surfaces were then regenerated two times with 10 mM glycine (pH 2.2). […] PD3/4 at a saturating concentration of 100 nM was then flowed over the surface at a flow rate of 30 μl/min for 30 min. A saturating concentration of 100 nM PD1/2 was injected immediately after the PD3/4. The dissociation constant (KD), association (kₒₙ), and dissociation (koff) rates were calculated from the baseline subtracted corrected binding curves using the BIAevaluation software (GE Healthcare).

T3 sequence (O88572 20-1613): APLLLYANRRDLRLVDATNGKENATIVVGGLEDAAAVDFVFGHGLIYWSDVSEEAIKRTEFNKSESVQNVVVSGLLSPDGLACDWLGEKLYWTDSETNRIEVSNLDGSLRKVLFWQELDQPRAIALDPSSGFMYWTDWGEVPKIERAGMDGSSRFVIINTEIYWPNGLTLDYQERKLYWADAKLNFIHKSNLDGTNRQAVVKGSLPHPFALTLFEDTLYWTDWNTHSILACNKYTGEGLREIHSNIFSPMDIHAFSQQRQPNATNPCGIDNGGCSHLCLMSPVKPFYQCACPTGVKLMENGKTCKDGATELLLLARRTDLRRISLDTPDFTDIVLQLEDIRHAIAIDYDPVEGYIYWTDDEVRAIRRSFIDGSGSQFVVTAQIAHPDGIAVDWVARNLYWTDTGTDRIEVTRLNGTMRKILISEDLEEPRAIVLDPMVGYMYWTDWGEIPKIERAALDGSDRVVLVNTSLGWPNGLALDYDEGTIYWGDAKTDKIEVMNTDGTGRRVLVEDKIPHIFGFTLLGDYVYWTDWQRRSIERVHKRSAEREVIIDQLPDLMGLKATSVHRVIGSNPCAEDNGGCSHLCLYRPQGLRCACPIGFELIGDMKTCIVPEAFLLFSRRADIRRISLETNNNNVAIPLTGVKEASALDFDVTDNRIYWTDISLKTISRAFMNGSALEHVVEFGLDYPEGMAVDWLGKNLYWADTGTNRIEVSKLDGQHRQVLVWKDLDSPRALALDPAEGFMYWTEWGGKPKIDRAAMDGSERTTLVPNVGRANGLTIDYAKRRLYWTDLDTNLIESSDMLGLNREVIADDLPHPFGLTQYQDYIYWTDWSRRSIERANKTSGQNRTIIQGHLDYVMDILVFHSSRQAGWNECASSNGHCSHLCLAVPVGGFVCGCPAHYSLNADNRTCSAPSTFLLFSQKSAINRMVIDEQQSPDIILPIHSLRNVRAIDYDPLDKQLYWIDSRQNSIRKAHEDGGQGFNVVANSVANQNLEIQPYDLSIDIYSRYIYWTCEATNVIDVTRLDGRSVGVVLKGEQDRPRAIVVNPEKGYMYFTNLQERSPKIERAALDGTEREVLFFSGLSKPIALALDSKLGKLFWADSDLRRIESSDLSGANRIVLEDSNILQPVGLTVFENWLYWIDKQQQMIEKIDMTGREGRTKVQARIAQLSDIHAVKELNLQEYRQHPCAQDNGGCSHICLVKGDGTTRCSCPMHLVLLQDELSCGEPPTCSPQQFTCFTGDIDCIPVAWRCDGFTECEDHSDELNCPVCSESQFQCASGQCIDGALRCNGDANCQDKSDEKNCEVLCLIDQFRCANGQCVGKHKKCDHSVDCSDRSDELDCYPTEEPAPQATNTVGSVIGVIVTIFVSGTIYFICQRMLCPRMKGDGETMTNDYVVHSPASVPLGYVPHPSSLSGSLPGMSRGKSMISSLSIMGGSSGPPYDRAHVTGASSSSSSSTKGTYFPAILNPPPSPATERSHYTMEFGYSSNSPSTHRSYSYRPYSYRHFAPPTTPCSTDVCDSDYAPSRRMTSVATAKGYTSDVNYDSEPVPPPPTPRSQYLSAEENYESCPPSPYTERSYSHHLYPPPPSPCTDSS

B1: scFv MOR06475 (scFv, V domains shown)
VH: QVQLKESGPALVKPTQTLTLTCTFSGFSLSNRGGGVGWIRQPPGKALEWLAWIDWDDDKSYSTSLKTRLTISKDTSKNQVVLTMTNMDPVDTATYYCARMHLPLVFDSWGQGTLVTVSS
VL: DIVLTQSPATLSLSPGERATLSCRASQFIGSRYLAWYQQKPGQAPRLLIYGASNRATGVPARFSGSGSGTDFTLTISSLEPEDFATYYCQQYYDYPQTFGQGTKVEIK
For B1, which “IC50 by STF assay for Wnt3a inhibition” value (human LRP6 [1]) is on record?
Its value is 1.48 nM.

B2: scFv08168 VH:I34M (scFv, V domains shown)
VH: QVQLVESGGGLVQPGGSLRLSCAASGFTFSDYVMNWVRQAPGKGLEWVSGISWSGVNTHYADSVKGRFTISRDNSKNTLYLQMNSLRAEDTAVYYCARLGATANNIRYKFMDVWGQGTLVTVSS
VL: DIELTQPPSVSVAPGQTARISCSGDSLRNKVYWYQQKPGQAPVLVIYKNNRPSGIPERFSGSNSGNTATLTISGTQAEDEADYYCQSYDGQKSLVFGGGTKLTVL
notes: Point mutant of scFv08168 (His tag)
For B2, which EC50 [2] is on record?
Its EC50 is 0.98 nM.

B3: scFv08168-D4 (scFv, not shown: small tags and cut ends)
scFv: QVQLVESGGGLVQPGGSLRLSCAASGFTFSDYVMNWVRQAPGKGLEWVSSISWSGVNTHYADSVKGRFTISRDNSKNTLYLQMNSLRAEDTAVYYCARLGATANNIRYKFMDVWGQGTLVTVSSGGGGSGGGGSGGGGSDIELTQPPSVSVAPGQTARISCSGDSLRNKVYWYQQKPGQAPVLVIYKNNRPSGIPERFSGSNSGNTATLTISGTQAEDEADYYCQSYDGQKSLVFGGGTKLTVL
With B3 as the binder, how does the “IC50 by STF assay for Wnt1 inhibition” value (human LRP6 [1]) read?
The value was 5.56 nM.

B4: scFv08168-D2 (scFv, not shown: small tags and cut ends)
scFv: QVQLVESGGGLVQPGGSLRLSCAASGFTFSDYVFNWVRQAPGKGLEWVAGISWSGVNTHYADSVKGRFTISRDNSKNTLYLQMNSLRAEDTAVYYCARLGATANNIRYKFMDVWGQGTLVTVSSGGGGSGGGGSGGGGSDIELTQPPSVSVAPGQTARISCSGDSLRNKVYWYQQKPGQAPVLVIYKNNRPSGIPERFSGSNSGNTATLTISGTQAEDEADYYCQSYDGQKSLVFGGGTKLTVL
For B4, which “IC50 by STF assay for Wnt1 inhibition” value (human LRP6 [1]) is on record?
Its value is 2.59 nM.

B5: MOR08168 Fab (Fab, V domains shown)
VH: QVQLVESGGGLVQPGGSLRLSCAASGFTFSDYVINWVRQAPGKGLEWVSGISWSGVNTHYADSVKGRFTISRDNSKNTLYLQMNSLRAEDTAVYYCARLGATANNIRYKFMDVWGQGTLVTVSS
VL: DIELTQPPSVSVAPGQTARISCSGDSLRNKVYWYQQKPGQAPVLVIYKNNRPSGIPERFSGSNSGNTATLTISGTQAEDEADYYCQSYDGQKSLVFGGGTKLTVL
notes: HuCAL Fab expressed in E. coli from pMORPH X9/X11 FH vectors and purified by Ni-NTA; also called Propeller 1 anti-LRP6 Fab MOR08168
For B5, which EC50 (mouse LRP6) is on record?
Its EC50 is 0.12 nM.

What about the EC50 (human LRP6 [3]) of the same binder?
The EC50 was 0.28 nM.

B6: MOR08545 Fab (Fab, V domains shown)
VH: QVQLVESGGGLVQPGGSLRLSCAASGFTFSVNGMHWVRQAPGKGLEWVSVIDGMGHTYYADSVKGRFTISRDNSKNTLYLQMNSLRAEDTAVYYCARYDYIKYGAFDPWGQGTLVTVSS
VL: DIELTQPPSVSVAPGQTARISCSGDNIGSKYVHWYQQKPGQAPVLVIYGDSNRPSGIPERFSGSNSGNTATLTISGTQAEDEADYYCTRTSTPISGVFGGGTKLTVLG
notes: also called Propeller 1 anti-LRP6 Fab MOR08545
What does the source list for B6?
EC50 (mouse LRP6): 0.06 nM; EC50 (human LRP6 [3]): 0.09 nM

B7: MOR08193 Fab (Fab, V domains shown)
VH: QVQLKESGPALVKPTQTLTLTCTFSGFSLSNRGGGVGWIRQPPGKALEWLAWIDWDDDKSYSTSLKTRLTISKDTSKNQVVLTMTNMDPVDTATYYCARMHLPLVFDSWGQGTLVTVSS
VL: DIVLTQSPATLSLSPGERATLSCRASQFIGSRYLAWYQQKPGQAPRLLIYGASNRATGVPARFSGSGSGTDFTLTISSLEPEDFAVYYCQQYWSIPITFGQGTKVEIKR
notes: also called Propeller 3 anti-LRP6 Fab MOR08193
What does the source list for B7?
EC50 (mouse LRP6): 0.08 nM; EC50 (human LRP6 [3]): 0.36 nM

B8: MOR08473 Fab (Fab, V domains shown)
VH: QVQLVESGGGLVQPGGSLRLSCAASGFTFSSYGMSWVRQAPGKGLEWVSNISNDGHYTYYADSVKGRFTISRDNSKNTLYLQMNSLRAEDTAVYYCARFQASYLDIMDYWGQGTLVTVSS
VL: DIELTQPPSVSVAPGQSITISCSGDNIGSKYVHWYQQKPGQAPVLVIYNDSNRPSGIPERFSGSNSGNTATLTISGTQAEDEADYYCQAWGDNGTRVFGGGTKLTVLG
notes: also called Propeller 3 anti-LRP6 Fab MOR08473
B8 was tested. Which EC50 (mouse LRP6) did it give?
Its EC50 is 0.46 nM.

What about the EC50 (human LRP6 [3]) of the same binder?
Its EC50 is 0.74 nM.

B9: MOR06475 IgG (antibody, V domains shown)
VH: QVQLKESGPALVKPTQTLTLTCTFSGFSLSNRGGGVGWIRQPPGKALEWLAWIDWDDDKSYSTSLKTRLTISKDTSKNQVVLTMTNMDPVDTATYYCARMHLPLVFDSWGQGTLVTVSS
VL: DIVLTQSPATLSLSPGERATLSCRASQFIGSRYLAWYQQKPGQAPRLLIYGASNRATGVPARFSGSGSGTDFTLTISSLEPEDFATYYCQQYYDYPQTFGQGTKVEIKR
notes: also called MOR6475; MOR6475 (propeller 3 antibody)
How did the Kd (LRP6 PD3/4) turn out when B9 was run?
Its Kd is 1.13 nM.

What about the koff (LRP6 PD3/4) of the same binder?
The koff was 0.000217 s⁻¹.

What about the kon (LRP6 PD3/4) of the same binder?
The kon was 201000 M⁻¹ s⁻¹.

B10: MOR06706 Fab (Fab, V domains shown)
VH: QVQLVESGGGLVQPGGSLRLSCAASGFTFSDYAIHWVRQAPGKGLEWVSGISYSGSSTHYADSVKGRFTISRDNSKNTLYLQMNSLRAEDTAVYYCARGSHGNIMAKRYFDFWGQGTLVTVSS
VL: DIELTQPPSVSVAPGQTARISCSGDNIRKKYVYWYQQKPGQAPVLVIYEDSKRPSGIPERFSGSNSGNTATLTISGTQAEDEADYYCSTADSGINNGVFGGGTKLTVL
notes: also called Propeller 1 anti-LRP6 Fab MOR06706
Which EC50 (human LRP6 [3]) does the source give for B10 here?
Its EC50 is 0.14 nM.

— patent publication US20130058934A1 (Novartis, published 2013)
